In patent US20250019435A1 (ALBERT EINSTEIN COLLEGE OF MEDICINE, published 2025):

T1: PVR expressed on transduced cells (PVR-YFP) (UniProt P15151 21-417)
T1 construct: whole, on cells; On NIH 3T3 or Raji cells; also called PVR/3T3; PVR-YFP/3T3; not shown: YFP ('PVR-YFP ... fusion protein')
T1 sequence (looked up): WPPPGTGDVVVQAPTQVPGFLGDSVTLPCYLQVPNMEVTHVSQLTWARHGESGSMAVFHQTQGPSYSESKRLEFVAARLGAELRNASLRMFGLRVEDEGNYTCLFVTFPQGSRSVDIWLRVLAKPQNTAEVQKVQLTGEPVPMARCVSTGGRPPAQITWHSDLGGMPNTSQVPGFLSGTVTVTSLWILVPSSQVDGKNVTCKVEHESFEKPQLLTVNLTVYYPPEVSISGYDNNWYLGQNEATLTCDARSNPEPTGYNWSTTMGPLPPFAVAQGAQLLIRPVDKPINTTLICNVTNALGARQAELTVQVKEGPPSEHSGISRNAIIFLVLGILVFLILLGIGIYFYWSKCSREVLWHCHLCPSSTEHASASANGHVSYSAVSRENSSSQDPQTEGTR

T2: PVR-Ig fusion protein (UniProt P15151 27-343)
T2 construct: Bought (R&D Systems); also called PVR-Ig protein; not shown: Ig part, detected with anti-human IgG Fc
T2 sequence (looked up): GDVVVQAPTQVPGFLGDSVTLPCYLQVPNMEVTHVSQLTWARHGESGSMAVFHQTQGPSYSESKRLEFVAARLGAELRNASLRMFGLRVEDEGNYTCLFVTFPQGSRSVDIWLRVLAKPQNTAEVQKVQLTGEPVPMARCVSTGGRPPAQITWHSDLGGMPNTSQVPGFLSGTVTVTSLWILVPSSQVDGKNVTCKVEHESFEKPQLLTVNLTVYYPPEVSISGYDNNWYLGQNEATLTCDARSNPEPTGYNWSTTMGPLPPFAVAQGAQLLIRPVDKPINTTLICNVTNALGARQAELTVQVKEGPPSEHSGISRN

B1: D0-deleted KIR2DL5 expressed on 3T3 cells (receptor)
chain: GLFGKPSLSAQPGPTVRTGENVTLSCSSRSSFDMYHLSREGRAHEPRLPAVPSVNGTFQADFPLGPATHGGTYTCFGSLHDSPYEWSDPSDPLLVSVTGNSSSSSSSPTEPSSKTGIRRHLHILIGTSVAIILFIILFFFLLHCCCSNKKNAAVMDQEPAGDRTVNREDSDDQDPQEVTYAQLDHCVFTQTKITSPSQRPKTPPTDTTMYMELPNAKPRSLSPAHKHHSQALRGSSRETTALSQNRVASSHVPAAGI
notes: the signal peptide 1-21 is left out; also called KIR2DL5 dD0; DO-deleted KIR2DL5

Experiments:
[1] = target: T1, PVR expressed on transduced cells …; test: confocal imaging of conjugates of transduced primary NK cells with PVR-YFP/Raji cells
Procedure: The KIR2DL5⁻ primary NK cells were transduced with WT KIR2DL5 or the indicated mutants, and then examined for protein expression with F8B30 (open) or mIgG1 (shaded). NC, negative control. Data are representative of 2 independent experiments. (B and C) Transduced primary NK cells were treated with (+) or without (−) pervanadate (VO₄) for 5 minutes. Cell lysates were immunoprecipitated with anti-KIR2DL5 antibodies. Phospho-tyrosine (4G10), SHP-1, SHP-2, and total KIR2DL5 were detected by immunoblots (B). Quantification of p-Tyr, SHP-1, and SHP-2 association with WT or mutant KIR2DL5 in VO₄-treated NK cells (C). WCL, whole-cell lysates. (D) Representative imaging of cell conjugates acquired upon the indicated transduced primary NK and PVR/Raji cell contact followed by staining with anti-KIR2DL5 mAb and DAPI. Scale bars: […]. (E) Lysis of scramble control or PVR^KO A427 (top) and Jurkat (bottom) by WT or mutant KIR2DL5-transduced primary NK cells at the indicated E/T ratios. Data are mean for duplicate measurements and representative of 3 independent experiments with 3 different donors. In A, and B, data are representative of 3 independent experiments. *P<0.05, **P<0.01, ***P<0.001, ****P<0.0001, by 1-way ANOVA (C), or paired Student's t test (D).
NK-Raji conjugation assay. […] Cell mixtures were then loaded onto poly-L-lysine-precoated slides and fixed with 4% formaldehyde at RT for 15 minutes. After blocking with 5% normal goat serum at RT for 1 hour, cells were stained with 20 µg/mL anti-KIR2DL5 antibodies (a mixture of 8 homemade clones) at 4° C. overnight and then with goat anti-mIgG (H+L) Alexa Flour 647 (Invitrogen) at RT for 2 hours. The cells were permeabilized by 0.1% Triton X-100 at RT for 15 minutes and stained with Alexa Flour Plus 405 Phalloidin (Life Technologies) for 1 hour at RT. The slides were then mounted by Gold Antifade Mountant without DAPI (Life Technologies). The mean pixel intensity of synapse and non-synapse was respectively measured and statistically analyzed. Images were acquired by Leica SP8 confocal microscope and processed by ImageJ (NIH).

[2] = target: B1; test: flow cytometry, transduced 3T3 cells
From the text: FIG. 15A-15E: Characterization of anti-KIR2DL5 specific monoclonal antibodies. (Related to FIGS. 8A-8D). (A) The protein sequence of KIR2DL5. The extracellular domain of KIR2DL5 was composed of tandem DO-D2 domains. The cytoplasmic tail of KIR2DL5 contained an immunoreceptor tyrosine-based inhibition motif (ITIM) and immunoreceptor tyrosine-based switch motif (ITSM). Domains were predicted and annotated based on UniProtKB (Q8N109). (B) The specificity of anti-KIR2DL5 mAbs. 3T3 cells transduced with indicated KIR family members were stained with 5 μg/ml of indicated anti-KIR2DL5 mAbs (open) or mIgG1 (shaded). (C, D) The affinity of anti-KIR2DL5 mAbs. C: Kinetic binding curves for F8B30 and B19C11. D: Data were acquired from kinetic binding curves detected by the Octet Red96 BLI instrument for indicated clones. (E) 3T3 cells transduced with DO-deleted (KIR2DL5 dD0) or D2-deleted KIR2DL5 (KIR2DL5 dD2) were stained with 5 μg/ml of indicated anti-KIR2DL5 mAbs. In B-E, data are representative of three independent experiments.

[3] = target: T3, KIR2DL5A*005 allele expressed on 3T3 cells (human); test: flow cytometry, 3T3 cells expressing KIR2DL5 alleles, mAb 5 µg/ml
T3 construct: also called 2D5A*005

[4] = target: T4, KIR2DL5-Ig fusion protein (KIR2DL5 extracellular domain fused to human IgG1 Fc) (human, UniProt Q8N109 22-240); test: BLI, Octet RED96; KIR2DL5-Ig captured on anti-human Fc biosensors, mAb in solution; global 1:1 fit
T4 construct: A D0-only fusion (H22-A128) also exists; also called KIR2DL5-human Ig fusion protein; KIR2DL5 DO-D2-Ig; not shown: human IgG1 Fc tag
Procedure: Biolayer interferometry. The affinities of anti-KIR2DL5 mAbs were analyzed by biolayer interferometry using an Octet RED96 system (ForteBio, Pall LLC). Briefly, anti-human Fc capture biosensors (ForteBio, Pall LLC) were preloaded with KIR2DL5-Ig and then dipped into a solution containing mAb at 2-fold serial dilutions (from 200 to 1.5 μg/mL). Data were analyzed using Forte Pall (Port Washington, New York, USA) software 9.0. The global data fitting to a 1:1 binding model was used to estimate values for the Kₒₙ (association rate constant), Koff (dissociation rate constant), and KD (equilibrium dissociation constant).

[5] = target: T2, PVR-Ig fusion protein; test: flow cytometry, PVR-Ig on transduced 3T3 cells
Procedure: FIG. 10A-E: Allelic polymorphism affected PVR binding of KIR2DL5. (A) Flow cytometric analysis of PVR-Ig or CD112-Ig (open) or control hIg (shaded) binding to KIR2DL5/3T3. (B) Flow cytometric analysis of PVR-Ig binding to KIR2DL5/3T3 in the presence of increasing concentrations of F8B30. (C) KIR2DL5 bound to different sites of PVR from other receptors. PVR-Ig protein was preincubated with indicated His-tagged protein and then stained KIR2DL5/3T3 cells. […] (D) Flow cytometric analysis of PVR-Ig (open) or control hIg (shaded) binding on 3T3 cells expressing WT, DO-deleted, or D2-deleted KIR2DL5. Parental 3T3 cells were used as a negative control. (E) Flow cytometric analysis of PVR-Ig or control hIg (shaded) binding on 3T3 cells expressing different KIR2DL5 alleles. In A-E, data are representative of 2 independent experiments.
Fusion protein cell binding assays. PVR-Ig, CD112-Ig, or hIgG (R&D Systems) was incubated with corresponding 3T3 cells on ice for 45 minutes, followed by incubation with APC- or PE-conjugated anti-human IgG Fc antibody (1:100; clone HP6017, BioLegend) on ice for 30 minutes. Cells were then acquired on an LSR II flow cytometer (BD Biosciences). In the anti-KIR2DL5 mAb blocking assay, KIR2DL5/3T3 cells were preincubated with a serial concentration of anti-KIR2DL5 mAb F8B30 or mIgG1 on ice for 30 minutes. […]

Binder	binding result [1]	binding result [2]	binding result [3]	Kd [4]	koff [4]	kon [4]	binding result [5]
Y328F (receptor, also called KIR2DL5 Y328F (ITSM mutant) on transduced primary NK cells) receptor chain: HEGGQDKPLLSAWPSAVVPRGGHVTLLCRSRLGFTIFSLYKEDGVPVPELYNKIFWKSILMGPVTPAHAGTYRCRGSHPRSPIEWSAPSNPLVIVVTGLFGKPSLSAQPGPTVRTGENVTLSCSSRSSFDMYHLSREGRAHEPRLPAVPSVNGTFQADFPLGPATHGGTYTCFGSLHDSPYEWSDPSDPLLVSVTGNSSSSSSSPTEPSSKTGIRRHLHILIGTSVAIILFIILFFFLLHCCCSNKKNAAVMDQEPAGDRTVNREDSDDQDPQEVTYAQLDHCVFTQTKITSPSQRPKTPPTDTTMFMELPNAKPRSLSPAHKHHSQALRGSSRETTALSQNRVASSHVPAAGI	binds	–	–	–	–	–	–
anti-KIR2DL5 mAb clone B2A18 (antibody, V domains shown, also called B2A18, (IgG1, κ)) VH: QIQLVQSGPEVKKPGETVKISCKASGYTFTKYGMNWVKQAPGKGLKWMGWINTNTGESTYAEDFKGRFAFSLETSANTAFLQINNLKNEDTAAYFCARWGPYGSSLYYGMDYWGQGTSVTVS VL: DIQMTQSSSSFSISLGDRVTITCRASEDLYNRLAWYQQKPGNAPRLLISGATSLETGVPSRFSGSGSGKDFTLSIPSVQTEDVGTYYCQQYRYTPWTFGGGTTLN	–	no binding (tested: 5 µg/ml)	binds	0.104 nM	0.000175 s⁻¹	1.68e+06 M⁻¹ s⁻¹	–
anti-KIR2DL5 mAb clone B33C12 (antibody, V domains shown, also called B33C12 (IgG2a, κ)) VH: QVQLQQSGAELVKPGASVKMSCKAFGYTFTSFPIEWMKQNHGKSLEWIGNFHPSNDDTKYNEKFNGKAKLTAETSSKTVYLELSRLTSDDSAVYYCARGSDYSFALDYWGQGTSVTVSS VL: GIVLTQSPASLAVSLGQRATISCRASESVDSYGYSFMHWYQQKPGQPPKLLIYRASNLKSGIPARFSGSGSRTDFTLTINPVEADDVATYYCQQSNEDPWTFGGGTKLEIK	–	no binding (tested: 5 µg/ml)	binds	0.359 nM	0.000299 s⁻¹	835000 M⁻¹ s⁻¹	–
anti-KIR2DL5 mAb clone B11B4 (antibody, V domains shown, also called B11B4 (IgG2b, κ)) VH: QVQLQQSGGELVKPGASVKMSCKAFGYTFTSFPIEWMKQNHGKSLEWIGNFHPYNDDTKYNEKFNGKAKLTAETSSKTVYLELSRLTSDDCSVYYCARGSDYSFGLDYWGQGTSVTVSS VL: GIVLTQSPASLVVSLGQRATISCRASESVDSYGYSFMHWYQQKPGQPPKLLIYRASNLKSGIPARFSGSGCRTDFTLTINPVEADDVATYYCQQSNEDPWTFGGGTKAGN	–	no binding (tested: 5 µg/ml)	–	0.245 nM	0.000202 s⁻¹	825000 M⁻¹ s⁻¹	–
B1	–	–	–	–	–	–	no binding
D2-deleted KIR2DL5 expressed on 3T3 cells (receptor, also called KIR2DL5 dD2) HEGGQDKPLLSAWPSAVVPRGGHVTLLCRSRLGFTIFSLYKEDGVPVPELYNKIFWKSILMGPVTPAHAGTYRCRGSHPRSPIEWSAPSNPLVIVVTGNSSSSSSSPTEPSSKTGIRRHLHILIGTSVAIILFIILFFFLLHCCCSNKKNAAVMDQEPAGDRTVNREDSDDQDPQEVTYAQLDHCVFTQTKITSPSQRPKTPPTDTTMYMELPNAKPRSLSPAHKHHSQALRGSSRETTALSQNRVASSHVPAAGI	–	–	–	–	–	–	no binding
